Earlier results on one molecule are cited in patent publication US20240084044A1, “Heteromultivalent Nucleic Acid Scaffolds and Uses Thereof” (George Mason University, priority 2022, published 2024).

For this series, the target named is T1, ST2 (Homo sapiens, UniProt Q01638).
T1 sequence (Q01638 19-556): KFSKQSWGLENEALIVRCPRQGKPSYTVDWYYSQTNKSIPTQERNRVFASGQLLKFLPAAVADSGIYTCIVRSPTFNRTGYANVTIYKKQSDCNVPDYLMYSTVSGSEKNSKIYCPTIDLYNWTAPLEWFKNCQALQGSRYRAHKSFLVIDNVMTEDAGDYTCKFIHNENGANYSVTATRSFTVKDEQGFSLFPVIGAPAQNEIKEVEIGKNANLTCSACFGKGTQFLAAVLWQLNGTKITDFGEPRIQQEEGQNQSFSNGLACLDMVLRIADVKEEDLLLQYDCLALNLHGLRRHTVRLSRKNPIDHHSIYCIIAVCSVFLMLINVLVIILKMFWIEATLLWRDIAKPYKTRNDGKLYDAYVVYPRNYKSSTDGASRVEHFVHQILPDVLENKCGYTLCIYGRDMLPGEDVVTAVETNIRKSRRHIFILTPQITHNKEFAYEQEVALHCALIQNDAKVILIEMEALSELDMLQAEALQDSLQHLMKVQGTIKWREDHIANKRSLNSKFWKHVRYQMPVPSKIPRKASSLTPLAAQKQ
To be noted: reported value; read-out: Kd of ST2/IL-33 binary complex; cited from earlier work.

B1: IL-33: recombinant interleukin-33 cytokine, ligand of ST2 (protein, UniProt O95760 1-270, looked up)
Interleukin-33: MKPKMKYSTNKISTAKWKNTASKALCFKLGKSQQKAKEVCPMYFMKLRSGLMIKKEACYFRRETTKRPSLKTGRKHKRHLVLAACQQQSTVECFAFGISGVQKYTRALHDSSITGISPITEYLASLSTYNDQSITFALEDESYEIYVEDLKKDEKKDKVLLSYYESQHPSNESGDGVDGKMLMVTLSPTKDFWLHANNKEHSVELHKCEKPLPDQAFFVLHNMHSNCVSFECKTDPGVFIGVKDNHLALIKVDSSENLCTENILFKLSET
For B1, the Kd is 0.026 nM.
